Source: a protein production outcome set (Wang et al. 2014)

Experiment: label from the status in PepcDB records

MDRHEYEHRIINRIVENHGRDTRQLLSILREVQHEFRQVSPEAQQKVAESLGVCITQVRAVVDFYSFLSTVPLGKFDIRISDSITDHMLGSREVAAGLCRKLGIQPGEPRQDGRVGLSFTSCTGLCDQGPAGLINGYAIPRLTEDRTDQIARLINDDIPLGEWPEEFFAIKENIRLADRLLGNPVRPGEALERTLALDRETMFGEIETSQLRGRGGAGFNTAWKWRFCYEGPETAAVCPPGQPAAGIERYVVCNADEGEPGTFKDRVLLQSCADQVFEGMTVCAYLVGAKQGFLYLRGEYLYLHDQLEAVLAARRRHGLLGKSILGREGFDFDIEIRLGAGAYICGEESALIESLEGNRGVPRNRPPYPVTHGYLGKPTVVNNVETFFAAAAIAVHGGEWFAEVGTEKSKGTKLLSICGDCARPGIYEYPFGVTIRQVLEDCGAADVLGVQIGGPSGTFLSDKECDRKLAYEDLATGGSFIVFDRTRDVIGIARNFTHFFAHESCGFCTPCRVGTALLKNLLDKIAEGHGATGDLAELSRLGRFVRSASHCGLGQTAANPILSTLERYPEIYQARLKTIDFEPGFDLDGALATARRLSGRDDANAHLSQS
protein production: failed

MIILSFYKLLERVICVHSITTYWWKYYLASFFSILVIGIVISSLNINIPYFFLIQIGLVFSLWYLISPIIMILVFKMRRAPQDVTFMVEDLSKKYNVKLSKVYIINDNFLNAFAFGNIIFRGIAVTSPLYESLVQEELAAVLSHEIAHIKNYDPEVMLLTIFSINSIYAALIYYLPLVSLFFLIIYFVILLPSVFYVHRKIEKRADLTAVKVNPDITYWLESSLIKIGYLSRSIPTNMLRYVPPIQIFLAKEFIVNHIVDEKSVLSFRTHPSLKERLLYLSQYEKQKMYYI
protein production: failed

MSKSEEKQELPLETSPYTKYEDIEDYKKNAYGTSGHQDVKPGHGGGTTDAPTPSGDAAPSAIDSANQKAKK
protein production: failed

LPLTDALRKALAEAPKHTANIARKRHILFIGKLMRDQDQEAILVLLDQLDASTRQYNERFHNLERWRDRLIAGDDADLEKFVIEYPDADRQQLRSLIRQAQHEVARNKP
protein production: failed

MPKVYNSIVVDAPVERVWSRIRNFHDFSWAPSLIKSCKKVGGGGGYSVGARRLLNGEFLDTLIAYSEIERRIMYSMDEGPSPVSSGEIYNYVGNLHLLPVTIDDTTFVEWSGSWESASTEAVEYMNTVYRSLLADLAAEFTSESRRSEWIDQLEHHHHHH
protein production: not failed

MEFNQFGQPIGHAIQQPIPGKFKAQSLIGNDVNLVLIEQDRVALKNVEQLWDCIKTEPDERCWTYLPYEAPETFRQLEYNLKRNFGFEPSFHYWIMVEGQAVGWIALMNLREQHAAVEIGNVYFSHRLKQTAAATEVIYLLLNHCFEQGLRRIEWKCDDLNGPSKRAALRFGFVYEGLFRQDRVSKGRNRDTTWFSIIDSEWASLKTAYLQWLNPDNFNHAGKQKKRLEDFIVT
protein production: failed

KRVFGFVSAKGGDGGSCIAANFAFALSQEPDIHVLAVDISLPFGDLDMYLSGNTHSQDLADISNASDRLDKSLLDTMVQHISPSLDLIPSPATFEKIVNIEPERVSDLIHIAASFYDYIIVDFGASIDHVGVWVLEHLDELCIVTTPSLQSLRRAGQLLKLCKEFEKPISRIEIILNRADTNSRITSDEIEKVIGRPISKRIPQDEDAMQESLLSGQSVLKVAPKSQLSKTIVDWALHLNGVSRPNKRSIWERLKIK
protein production: not failed

TGQDAYGQVTEMQYVVYAFSKVETIFSDMYAFAALKTDGSVVTWGYSDYGGDSSSVAGQLTSGVKVIDSTSSAFAAIKEDGSVVTWGDSPYGGDSSSVAGKLTSGVKVIYSNSSAFAAVKQDGSVVTWGSYGGDSSSVAGQLTSGVKVIYSTDSEFGAFAAVKEDGSVVTWGNSPYGGDSSSVAGQLTSGVKVIYSTNNAFAAVKEDGSVVTWGDSGAGGDSSSVAGQLT
protein production: failed

TAQLTIEAVPSNAAEGKEVLLLVHNLPQDPRGYNWYKGETVDANRRIIGYVISNQQITPGPAYSNRETIYPNASLLMRNVTRNDTGSYTLQVIKLNLMSEEVTGQFSVHPETPKPSI
protein production: not failed

MEKPRSIEETPSSEPMEEEEDDDLELFGGYDSFRSYNSSVGSESSSYLEESSEAENEDREAGELPTSPLHLLSPGTPRSLDGSGSEPAVCEMCGIVGTREAFFSKTKRFCSVSCSRSYSSNSKKASILARLQGKPPTKKAKVLHKAAWSAKIGAFLHSQGTGQLADGTPTGQDALVLGFDWGKFLKDHSYKAAPVSCFKHVPLYDQWEDVMKGMKVEVLNSDAVLPSRVYWIASVIQTAGYRVLLRYEGFENDASHDFWCNLGTVDVHPIGWCAINSKILVPPRTIHAKFTDWKGYLMKRLVGSRTLPVDFHIKMVESMKYPFRQGMRLEVVDKSQVSRTRMAVVDTVIGGRLRLLYEDGDSDDDFWCHMWSPLIHPVGWSRRVGHGIKMSERRSDMAHHPTFRKIYCDAVPYLFKKVRAVYTEGGWFEEGMKLEAIDPLNLGNICVATVCKVLLDGYLMICVDGGPSTDGLDWFCYHASSHAIFPATFCQKNDIELTPPKGYEAQTFNWENYLEKTKSKAAPSRLFNMDCPNHGFKVGMKLEAVDLMEPRLICVATVKRVVHRLLSIHFDGWDSEYDQWVDCESPDIYPVGWCELTGYQLQPPVAAEPATPLKAKEATKKKKKQFGKKRKRIPPTKTRPLRQGSKKPLLEDDPQGARKISSEPVPGEIIAVRVKEEHLDVASPDKASSPELPVSVENIKQETDD
protein production: failed

MDSIKGVFTGNKDTPLEESNLPVEAFTLLRFADELKNARRLGKFKQYIVGRSSEATFADAFEKQEAVIRYLGALDATGENLQASQKQDAAKHCKCTITDVENTLSKFTWARQAHKKMTELKEGGKPLPKNMGEVFFSLCILICFFSSISSYV
protein production: failed

MEAMTLPPQDLPPGQALLATPLGTANAPQAARVHTYPLRFTGQASEYFRVWIVNLALTVITLGLYTPWARIRTRQYLYGHTWLDDQNFEYTASPFALLRGYLIVVAFFGLYTAAQQLQFTGWEWVTGALGLLFAVAYPWLVRQSMRFQARSTVHRGLRFRFTGSLGDAYVSYGVANIAAVFSGSLALPWAWFMQRRYQADGLAYGTARGHFRGSLGPFYLIGLAGAGLTVLGIGLLAGLAIGAATIAGVLGDLNLEQLDTDLLTSAVVVAFVLGYLALAVLYGIAWQYVRAATMHYVLNNFELGGVVRTQATFSPWRLVWINLANTLARIFSLGLLTPWTVIRTNRYLLGHVQVRAIVSLDDFSAAQTEDESAVGEAATELLDINIGF
protein production: failed

MLSGVGAPVGKQMLAGTEVAAMQINKAGGLLGREVELVIRDDKYNSSESVAVARELAGDGINLLLGGSQTVTALGLAPLAPELNMAVMIVAAAGMPVTHELFNPNIFRATANNYTQYSSLGRVLIEQNPDVRTWVSLAPDGDFGRDSALFFGKAVEKYAPGEKPTVLDTIYTQATATDFRTQINQLMSSDAEGLYIGIAASAQISFFQQARSVGLYDKFKAIGEVGNGDITGKAMGRNTHPNLWSVCHWIYNAEPFASNPVSKQLYEDYVTLKGDEMPSAQVAAGHRAAMAIFEGIRAAGSTETEAVLAAIEDVEFETVGGPVSFRKEDHQLVNTNYYSQMGPSREEPFFAFNKVVSIDAAEMIEPATPGKAFDISELPQLEHHHHHH
protein production: failed

MSDHPGSNAANPPPVPGAPALRTRRFNVSLVWLVPIVAALVGLSMVVHNSLSAGPEISISFQTAEGLEANKTQVKYKNVVIGKVTSIALSDDRKKVVAKVELDQSAEPFTADDSLFWVVRPRIGANGISGVDTLLSGAFIGADAGKSEKRKDSFKGLETPPPITYGQKGKRFTLHTDDLGSLDIGSPVYYRRIEVGQVVSYQLANSGKGVDVKIFVNSPNDKYVTTDTRFWNASGVDVTLGANGLKVNTESVSSILAGGIAFVEPKYSPNAKPADENAEYTLFGDQDTALAPPDGAPYYIRMRFDQALRGLSVNAPVEFLGVNIGKVVSMDLDYDEQRKYFPTLVGAVIYPERLGKAHEKLVKQTGGEDDVRSAKLIGAFVKNGLRAQPRSGNLLTGQLYISLDFVTNAKPVAYDATARPLEIPTVPGSMDKLQEQLQAVVDKISKLPIDSIAANLNGSLAEMQKTLKQVNGEVLPQMRDTLEQSKKTLASANESFSEDSPQRQKLGQAMEEVQRTARSVRVLSDFLGRHPEALIRGRLKDNQPDAYQSPSSSVRESVPEAQP
protein production: failed

MLKPLVLSDSSPVRPRDLTLLDQEEAGLVSTFINRPPIDIFKILPSKDDPDWPSFQQILSKFPDTEHLCPDGGLVNNSFILDIVLPQKWIDHRVCNPRFFQSIVSTTCYFMGFVFYADLNLGFMHFSPFHIAII
protein production: failed

RPQGLHLELETRLQKMYGIRQVIVVEATEPDDEESIKQAIGSAAAHYLETSLSAQDHIGISSWSSTIRAMVSHMHPQPGKQSAQEVVQLLGGVGNKGAFEATLLTQRLATLLNCPAFLLPSQSIEQSVESKQRIVEMEEVKEVLHRFDSITLAIVGIGELEPSQLLRNSGNYYTEDMLRVLAERGAVGDICLRYFDAQGKPVLEEDEEFVVSMGLGKLRSINRVLGLAGGVRKVQAIKGALLGGYLDVLITDVGTARGLGG
protein production: not failed

MLVVAVVFPVLAFIFLGGVVFYTRKQNKPKNKRAASVEVDENNEDGVKVNNSELKKLTKIKKIKGSKIYLKNGAIRVNLGISSPDFELLTDEEQTSFEDCLMMSALSLNFPVQFHTTLKKIEIKEPAELVEKTMNSSDSLISDNLRDYCSQLYSSYKKLEHEKGIFVRKSFCTVGAYLPDRDEKKVLNELQSRIDNIAGGLSRARMKINLLNSESTAQILADLFNRGKNIKIETLEKDGAFDLYSEGVGQVVEVQEG
protein production: failed

MTTARPAKARNEGQWALGHREPLNANEELKKAGNPLDVRERIENIYAKQGFDSIDKTDLRGRFRWWGLYTQREQGYDGTWTGDDNIDKLEAKYFMMRVRCDGGALSAAALRTLGQISTEFARDTADISDRQNVQYHWIEVENVPEIWRRLDDVGLQTTEACGDCPRVVLGSPLAGESLDEVLDPTWAIEEIVRRYIGKPDFADLPRKYKTAISGLQDVAHEINDVAFIGVNHPEHGPGLDLWVGGGLSTNPMLAQRVGAWVPLGEVPEVWAAVTSVFRDYGYRRLRAKARLKFLIKDWGIAKFREVLETEYLKRPLIDGPAPEPVKHPIDHVGVQRLKNGLNAVGVAPIAGRVSGTILTAVADLMARAGSDRIRFTPYQKLVILDIPDALLDDLIAGLDALGLQSRPSHWRRNLMACSGIEFCKLSFAETRVRAQHLVPELERRLEDINSQLDVPITVNINGCPNSCARIQIADIGFKGQMIDDGHGGSVEGFQVHLGGHLGLDAGFGRKLRQHKVTSDELGDYIDRVVRNFVKHRSEGERFAQWVIRAEEDDLR
protein production: not failed

MNIQAIDTRHGTANQHSFSNGNCLPYTGVPFGMNFYAPQTTDQKGSWWFHPEDRTFQGYRVTHQPSPWMGDFSHLLMTPVSGSLSELSLFHAQSSYRPEESLFSPVEINLTQLRYQITSQLIPSMYGGILTIDYQQKDNHLLLTLPGRYQVKQLDDHQVAVKVINYSGCEDPDFSFYFVLHFEQPLTKWFAPSSGLEHHHHHH
protein production: failed

QISTPVIRVWDGILALPIIGTLDSSRTQVVMESLLQEIVDTGSSIAILDISGVPAVDSLVAQHLIKTVSATRLMGAECIISGIRPEIAQTVVHLGIDLSTIITKATLASALKTA
protein production: failed

SQVDDWIVGLEVEIFTFDGKEYRGIVYTYDADANCVVLARKSQDSLKSDLRILKASLVKNINVLGRSNVDQLPQQLSPLNLEALKMREEQALQKARKDLARTGVGVSQQAQEIFDALCKTLPCQWEEDSIVIFENIKLKKPYRVEDLDEIEAVNRVKVVLENELQKLQRRNT
protein production: not failed

MAQPSTTYKFELNLTDLDRGVYESVKQTIARHPSETEERMTVRLLAYAFWYNEQLAFGRGLSDVDEPALWEKSLDDRVLHWIEVGQPDADRLTWCSRRTERTSLLAYGSLRVWEGKVIPAIKNLKNVNIAAVPQDVLEVLAKDMPRVIKWDVMISEGTVFVTDDRGQHEVQLQWLTGERG
protein production: not failed

MALTSGQVGNLLNAFDSHGGHFQTQMAFRLMWLTLTRANESVQARWDEFDLANGLWKIPKERMKARREHLLPLPRQAVSILTTMQPITGQSTYVFPNRDDRHKPMSDAAFRQALKKLGWATIYSPHGTRTTGSTRLNEMGLEHHHHHH
protein production: failed
